Data reported in US20230241247.

Tests used:
[1] = biological target: human IgG (total IgG in human serum / pooled human plasma)
[2] = biological target: rhesus IgG (total IgG in rhesus macaque plasma)
[3] = biological target: hamster IgG (IgG in pooled hamster plasma)

B1: immunoglobulin G (IgG)-degrading enzyme from Streptococcus pyogenes (IdeS; Promega) (protein)
chain: DSFSANQEIRYSEVTPYHVTSVWTKGVTPPANFTQGEDVFHAPYVANQGWYDITKTFNGKDDLLCGAATAGNMLHWWFDQNKDQIKRYLEEHPEKQKINFNGEQMFDVKEAIDTKNHQLDSKLFEYFKEKAFPYLSTKHLGVFPDHVIDMFINGYRLSLTNHGPTPVKEGSKDPRGGIFDAVFTRGDQSKLLTSRHDFKEKNLKEISDLIKKELTEGKALGLSHTYANVRINHVINLWGADFDSNGNLKAIYVTDSDSNASIGMKKYFVGVNSAGKVAISAKEIKEDNIGAQVLGLFTLSTGQDSWNQTN
cleavage of IgG in serum/plasma in vitro (non-reducing SDS-PAGE, Coomassie stain) [1]: IdeS is a highly efficient and specific protease of human IgG, rhesus IgG and hamster IgG | cleavage of IgG in serum/plasma in vitro (non-reducing SDS-PAGE, Coomassie stain) [2]: IdeS is a highly efficient and specific protease of human IgG, rhesus IgG and hamster IgG | cleavage of IgG in serum/plasma in vitro (non-reducing SDS-PAGE, Coomassie stain) [3]: IdeS is a highly efficient and specific protease of human IgG, rhesus IgG and hamster IgG
